Measured values: the supplement of paper PMC7877785
± gives the uncertainty stated by the source.

Test: self-splicing fitness, log relative to wild type (ln ratio); higher = more splicing; Tetrahymena group I intron in knt gene, E. coli kanamycin selection, DiMSum; sequences stand for … in CUCUCU…GGAGGGAAAAGUUAUCAGGCAUGCACCUGGUAGCUAGUCUUUAAACCAAUAGAUUGCAUCGGUUUAAAAGGCAAGACCGUCAAAUUGCGGGAAAGGGGUCAACAGCCGUUCAGUACCAAGUCUCAGGGGAAACUUUGAGAUGGCCUUGCAAAGGGUAUGGUAAUAAGCUGACGGACAUGGUCCUAACCACGCAGCCAAGUCCUAAGUCAACAGAUCUUCUGUUGAUAUGGAUGCAGUUCACAGACUAAAUGUCGGUCGGGGAAGAUGUAUUCUUCUCAUAAGAUAUAGUCGGACCUCUCCUUAAUGGGAGCUAGCGGAUGAAGUGAUGCAACACUGGAGCCGCUGGGAACUAAUUUGUAUGCGAAAGUAUAUUGAUUAGUUUUGGAGUACUCGUGGUCG
Procedure, shortened: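 DiMSum derived fitness as the error-weighted combination of fold changes across replicates, kanamycin versus no kanamycin, normalised to wild type. E. coli BL21(DE3) held the library, which randomised all eight P1ex-region intron nucleotides within the knt kanamycin-resistance gene on pET-22b(+). Six replicate transformations grew overnight at 37°C or 30°C on LB agar with or without 25 μg/mL kanamycin, also containing 100 μg/mL carbenicillin, 50 μM IPTG and 0.2% rhamnose, and pooled colonies were amplicon-sequenced on an Illumina HiSeq 2500.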

Sequence | self-splicing fitness (ln) (37 °C) | self-splicing fitness (ln) (30 °C)
UCGAAGCAAUAUUACGGAGC | -1.75 ± 0.33 | –
UCGAAGCAAUAUUACGGAGG | -1.82 ± 0.41 | -2.79 ± 0.32
UCGAAGCAAUAUUACGGAUA | -1.15 ± 0.19 | -1.08 ± 0.15
UCGAAGCAAUAUUACGGGAA | -0.804 ± 0.11 | -2.02 ± 0.12
UCGAAGCAAUAUUACGGGAU | -3.17 ± 0.32 | -3.98 ± 0.31
UCGAAGCAAUAUUACGUAUC | – | -3.96 ± 0.35
UCGAAGCAAUAUUACGUAUU | -3.17 ± 0.31 | -2.99 ± 0.18
UCGAAGCAAUAUUACGUCUG | -0.194 ± 0.077 | -0.0903 ± 0.069
UCGAAGCAAUAUUACGUGUG | -0.757 ± 0.073 | -1.43 ± 0.061
UCGAAGCAAUAUUACGUUAG | -1.35 ± 0.13 | -1.25 ± 0.1
UCGCAGCAAUAUUACGAACA | 0.339 ± 0.13 | -1.65 ± 0.12
UCGCAGCAAUAUUACGAAUA | -1.74 ± 0.16 | -2.57 ± 0.22
UCGCAGCAAUAUUACGAGCA | -0.449 ± 0.27 | -1.25 ± 0.23
UCGCAGCAAUAUUACGAGCU | -2.22 ± 0.26 | -3.14 ± 0.39
UCGCAGCAAUAUUACGAUGU | -2.31 ± 0.28 | -2.15 ± 0.18
UCGCAGCAAUAUUACGAUUU | -2.24 ± 0.17 | -3.55 ± 0.34
UCGCAGCAAUAUUACGCAAA | -1.53 ± 0.11 | -2.05 ± 0.13
UCGCAGCAAUAUUACGCCCU | -0.902 ± 0.15 | -1.18 ± 0.13
UCGCAGCAAUAUUACGCCGG | -1.76 ± 0.38 | -2.67 ± 0.22
UCGCAGCAAUAUUACGGCCU | 0.148 ± 0.076 | -0.665 ± 0.057
UCGCAGCAAUAUUACGGCGC | -0.971 ± 0.17 | -1.87 ± 0.12
UCGCAGCAAUAUUACGGGAU | -2.3 ± 0.18 | -3.64 ± 0.25
UCGCAGCAAUAUUACGGGUA | -1.08 ± 0.052 | -1.78 ± 0.071
UCGCAGCAAUAUUACGGUCU | -1.13 ± 0.12 | -3.22 ± 0.2
UCGCAGCAAUAUUACGGUGC | -1.62 ± 0.15 | -4.1 ± 0.24
UCGCAGCAAUAUUACGUAAG | -1.12 ± 0.11 | -1.4 ± 0.099

Sequence | self-splicing fitness (ln) (37 °C) | self-splicing fitness (ln) (30 °C)
UCGCAGCAAUAUUACGUUCG | -0.562 ± 0.094 | -0.961 ± 0.088
UCGGAGCAAUAUUACGACUG | 0.217 ± 0.17 | -1.59 ± 0.31
UCGGAGCAAUAUUACGCUGA | -2.16 ± 0.2 | -2.56 ± 0.29
UCGGAGCAAUAUUACGGAGG | -1.98 ± 0.34 | -3.68 ± 0.46
UCGGAGCAAUAUUACGGCGU | -0.847 ± 0.16 | -1.82 ± 0.22
UCGGAGCAAUAUUACGGGGU | – | -3.57 ± 0.29
UCGGAGCAAUAUUACGGUCA | – | -0.984 ± 0.18
UCGGAGCAAUAUUACGGUGG | -2.01 ± 0.16 | -3.35 ± 0.12
UCGGAGCAAUAUUACGUGAG | -1.01 ± 0.12 | -1.65 ± 0.096
UCGGAGCAAUAUUACGUGCU | -2.66 ± 0.27 | –
UCGGAGCAAUAUUACGUUAA | -2.78 ± 0.32 | -2.69 ± 0.31
UCGUAGCAAUAUUACGAAAA | -1.77 ± 0.46 | -2.3 ± 0.36
UCGUAGCAAUAUUACGAAAU | -1.65 ± 0.26 | -3.8 ± 0.33
UCGUAGCAAUAUUACGACCG | -0.438 ± 0.34 | -1.23 ± 0.18
UCGUAGCAAUAUUACGAGCG | -1.13 ± 0.21 | -0.988 ± 0.14
UCGUAGCAAUAUUACGCACA | -1.7 ± 0.2 | -2.52 ± 0.21
UCGUAGCAAUAUUACGCAUA | -1.34 ± 0.21 | -1.57 ± 0.16
UCGUAGCAAUAUUACGCCAA | -1.4 ± 0.17 | -3.89 ± 0.3
UCGUAGCAAUAUUACGCCUG | 0.322 ± 0.13 | -0.246 ± 0.12
UCGUAGCAAUAUUACGCUGA | -1.35 ± 0.15 | -2.45 ± 0.28
UCGUAGCAAUAUUACGGAGG | -3.14 ± 0.3 | -2.53 ± 0.27
UCGUAGCAAUAUUACGGUAC | -3.01 ± 0.34 | -4.6 ± 0.46
UCGUAGCAAUAUUACGGUAU | -1.93 ± 0.28 | -2.96 ± 0.22
UCGUAGCAAUAUUACGGUUA | -0.71 ± 0.12 | -1.39 ± 0.15
UCGUAGCAAUAUUACGUCAA | -1.53 ± 0.15 | -2.24 ± 0.23
UCGUAGCAAUAUUACGUCAC | -2 ± 0.38 | -1.39 ± 0.18

Sequence | self-splicing fitness (ln) (37 °C) | self-splicing fitness (ln) (30 °C)
UCGUAGCAAUAUUACGUCGA | -1.91 ± 0.15 | -2.49 ± 0.17
UCGUAGCAAUAUUACGUCGG | -0.337 ± 0.17 | -1.49 ± 0.15
UCUAAGCAAUAUUACGAAAC | -2.6 ± 0.45 | –
UCUAAGCAAUAUUACGAACG | -1.28 ± 0.11 | -1.64 ± 0.094
UCUAAGCAAUAUUACGAAUG | -0.995 ± 0.12 | -1.16 ± 0.095
UCUAAGCAAUAUUACGACAA | -1.33 ± 0.11 | -1.13 ± 0.11
UCUAAGCAAUAUUACGAGGG | -2.61 ± 0.27 | -3.29 ± 0.47
UCUAAGCAAUAUUACGAUCA | -0.379 ± 0.14 | -0.876 ± 0.21
UCUAAGCAAUAUUACGAUGA | 0.0109 ± 0.072 | -0.162 ± 0.058
UCUAAGCAAUAUUACGCCAG | -0.166 ± 0.16 | -1.18 ± 0.12
UCUAAGCAAUAUUACGCCCC | -1.6 ± 0.44 | –
UCUAAGCAAUAUUACGCCGU | -1.09 ± 0.19 | -1.72 ± 0.12
UCUAAGCAAUAUUACGCGUC | -2.01 ± 0.18 | -3.36 ± 0.24
UCUAAGCAAUAUUACGCUGA | -2.52 ± 0.33 | -3.56 ± 0.41
UCUAAGCAAUAUUACGGAGG | -3.05 ± 0.43 | -2.49 ± 0.26
UCUAAGCAAUAUUACGGAUC | -3.24 ± 0.37 | -3.37 ± 0.37
UCUAAGCAAUAUUACGGGGA | -0.821 ± 0.12 | -1.76 ± 0.11
UCUAAGCAAUAUUACGGUAG | -0.881 ± 0.11 | -2.09 ± 0.11
UCUAAGCAAUAUUACGUACC | -1.04 ± 0.47 | –
UCUAAGCAAUAUUACGUAGC | -1.25 ± 0.2 | -2.23 ± 0.19
UCUAAGCAAUAUUACGUAUG | -1.6 ± 0.11 | -1.95 ± 0.089
UCUAAGCAAUAUUACGUGAC | -2.95 ± 0.28 | -2.88 ± 0.23
UCUAAGCAAUAUUACGUGAU | -2.69 ± 0.18 | -4.27 ± 0.22
UCUAAGCAAUAUUACGUGCG | -0.581 ± 0.15 | -0.493 ± 0.1
UCUAAGCAAUAUUACGUGGU | -2 ± 0.14 | -2.45 ± 0.12
UCUAAGCAAUAUUACGUUAC | -2.09 ± 0.26 | -2.8 ± 0.18
